T1: murine CD19 protein (murine, UniProt P25918 19-287, limits assumed)
T1 construct: also called mouse CD19-his protein
T1 sequence (looked up): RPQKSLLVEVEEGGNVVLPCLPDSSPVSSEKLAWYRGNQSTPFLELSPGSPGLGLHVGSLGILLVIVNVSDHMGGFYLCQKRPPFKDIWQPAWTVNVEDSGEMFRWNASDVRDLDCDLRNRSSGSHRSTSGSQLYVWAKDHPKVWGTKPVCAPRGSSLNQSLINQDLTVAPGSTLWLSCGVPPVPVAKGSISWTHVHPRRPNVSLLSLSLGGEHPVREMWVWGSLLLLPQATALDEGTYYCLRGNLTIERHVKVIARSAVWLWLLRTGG

T2: human CD19-his protein (human, UniProt P15391 20-291)
T2 construct: also called recombinant human CD19-His; human CD19 protein; not shown: His tag
T2 sequence (looked up): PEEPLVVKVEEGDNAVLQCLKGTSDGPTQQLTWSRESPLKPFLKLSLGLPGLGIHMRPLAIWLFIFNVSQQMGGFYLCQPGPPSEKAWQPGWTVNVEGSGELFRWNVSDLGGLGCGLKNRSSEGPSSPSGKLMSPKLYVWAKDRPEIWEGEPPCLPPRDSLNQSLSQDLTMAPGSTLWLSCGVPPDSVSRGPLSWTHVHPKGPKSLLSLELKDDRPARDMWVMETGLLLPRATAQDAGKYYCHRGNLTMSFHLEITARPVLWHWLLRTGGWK

T3: human CD19, full length, on cells (human, UniProt P15391 20-556)
T3 construct: the endogenous CD19 of Raji cells is put under the same molecule (the cell type stands under assay); The entry holds the signal peptide; also called CHO-K1-human CD19; CHO-K1-human CD19-2C8
T3 sequence: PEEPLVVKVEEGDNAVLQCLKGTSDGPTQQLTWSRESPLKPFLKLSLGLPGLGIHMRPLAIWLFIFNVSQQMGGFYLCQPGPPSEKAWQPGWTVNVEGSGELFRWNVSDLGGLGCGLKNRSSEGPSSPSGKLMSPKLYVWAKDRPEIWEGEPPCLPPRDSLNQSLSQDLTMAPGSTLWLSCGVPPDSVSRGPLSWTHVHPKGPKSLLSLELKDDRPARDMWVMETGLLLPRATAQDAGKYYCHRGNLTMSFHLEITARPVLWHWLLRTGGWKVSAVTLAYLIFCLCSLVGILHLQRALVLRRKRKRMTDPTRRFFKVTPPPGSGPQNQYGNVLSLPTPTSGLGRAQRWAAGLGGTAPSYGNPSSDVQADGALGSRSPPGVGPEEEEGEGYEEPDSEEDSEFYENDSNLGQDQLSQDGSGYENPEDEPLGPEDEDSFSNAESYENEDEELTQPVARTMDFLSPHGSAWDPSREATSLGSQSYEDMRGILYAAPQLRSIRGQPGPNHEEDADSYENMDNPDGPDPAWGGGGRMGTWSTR


Columns and labels:
[1] = target: T1, murine CD19 protein; test: ELISA, murine CD19 coated
[2] = target: T2, human CD19-his protein; test: ELISA, human CD19-his coated at 4 ug/mL
Experimental: A human CD19-his protein (purchased from ACROBiosystems, Cat. No. CD9-H52H2) was diluted with PBS to make a final concentration of 4 μg/mL, and then added into a 96-well ELISA plate at 100 μL/well. The plate was sealed with a plastic film and incubated at 4° C. overnight, wash twice with PBS the next day, and blocked at room temperature for 2 h by adding a blocking solution [PBS +2% (w/w) BSA]. […] After incubation for 2 h at 37° C., the plate was washed 3 times with PBS. […] After incubation for 1 h at 37° C., the plate was washed 5 times with PBS. A TMB substrate was added at 50 μL/well. After incubation at room temperature for 10 min, a stop solution (1.0 N HCl) was added at 50 μL/well. The OD450 nm values were read on an ELISA microplate reader (Multimode Plate Reader, EnSight, purchased from Perkin Elmer). […] The negative control antibody mIgG1 was an antibody against hen egg lysozyme, anti-hel-mIgG1 (purchased from Biointron, Cat. No. B118301), and the data in the table were OD450 nm values.

[3] = target: T1, murine CD19 protein; test: ELISA, murine CD19 coated; remark: listed apart in the source
[4] = target: T3, human CD19, full length, on cells; test: FACS on CHO-K1-human CD19 cells
Source text: The desired cells were expanded to a logarithmic growth phase in a T-75 cell culture flask. For adherent cells CHO-K1, the culture medium was removed by pipetting, and the cells were washed twice with a PBS buffer, digested with trypsin, and washed twice with a PBS buffer again after the digestion was stopped. For suspension cells Raji, the medium supernatant was discarded by direct centrifugation, and the cell pellet was washed twice with PBS. After cell counting of the cells obtained in the last step, the cell pellet was resuspended to 2×10⁶ cells/mL with a blocking solution [PBS+2% (w/w) BSA] and added into a 96-well FACS reaction plate at 50 μL/well. […] After the plate was centrifuged and washed 5 times with a PBS buffer, the results were assayed and analyzed by FACS (FACS Canto™, purchased from BD Biosciences). Data analysis was performed by software (CellQuest) to obtain the mean fluorescence intensity (MFI) of the cells. Then, analysis was performed by software (GraphPad Prism8), data were fitted, and EC₅₀ values were calculated.

| Binder | binding result [1] | OD450 at 0.0001 nM [2] | OD450 at 0.001 nM [2] | OD450 at 0.01 nM [2] | OD450 at 0.10 nM [2] | OD450 at 1.00 nM [2] | OD450 at 10.00 nM [2] | OD450 at 100.00 nM [2] | OD450 at 0.0001 nM [3] | OD450 at 0.001 nM [3] | OD450 at 0.01 nM [3] | OD450 at 0.10 nM [3] | OD450 at 1.00 nM [3] | OD450 at 10.00 nM [3] | OD450 at 100.00 nM [3] | EC50 [4] | maximum mean fluorescence intensity [4] |
| --- | --- | --- | --- | --- | --- | --- | --- | --- | --- | --- | --- | --- | --- | --- | --- | --- | --- |
| FMC63.26-mIgG1 (antibody, V domains shown, Humanized FMC63; also called FMC63-L2H6) VH: EVTLKESGPVLVKPTETLTLTCTVSGFSLPDYGVSWIRQPPGKALEWLAVIWGSETTYYNSALKSRLTISKDTSKSQVVLTMTNMDPVDTATYYCAKHYYYGGSYAMDYWGQGTTVTVSS VL: DIQMTQSPSSLSASVGDRVTITCRASQDISKYLNWYQQKPGGAVKLLIYHTSRLHSGVPSRFSGSGSGTDYTLTISSLQPEDFATYYCQQGNTLPYTFGGGTKVEIKR | no binding (tested: 100 nM) | 0.11 OD450 | 0.15 OD450 | 0.38 OD450 | 1.54 OD450 | 2.37 OD450 | 2.38 OD450 | 2.59 OD450 | 0.08 OD450 | 0.07 OD450 | 0.06 OD450 | 0.07 OD450 | 0.08 OD450 | 0.09 OD450 | 0.13 OD450 | 1.12 nM | 31500 MFI |
| FMC63.25-mIgG1 (antibody, V domains shown, Humanized FMC63; also called FMC63-L2H5) VH: EVTLKESGPVLVKPTETLTLTCTVSGFSLSDYGVSWIRQPPGKALEWLAVIWGSETTYYNSALKSRLTISKDTSKSQVVLTMTNMDPVDTATYYCAKHYYYGGSYAMDYWGQGTTVTVSS VL: DIQMTQSPSSLSASVGDRVTITCRASQDISKYLNWYQQKPGGAVKLLIYHTSRLHSGVPSRFSGSGSGTDYTLTISSLQPEDFATYYCQQGNTLPYTFGGGTKVEIKR | no binding (tested: 100 nM) | 0.13 OD450 | 0.17 OD450 | 0.51 OD450 | 1.71 OD450 | 2.44 OD450 | 2.46 OD450 | 2.75 OD450 | 0.08 OD450 | 0.08 OD450 | 0.08 OD450 | 0.08 OD450 | 0.08 OD450 | 0.08 OD450 | 0.09 OD450 | 0.79 nM | 33100 MFI |
| FMC63.27-mIgG1 (antibody, V domains shown, Humanized FMC63; also called FMC63-L2H7) VH: EVTLKESGPVLVKPTETLTLTCTVSGVSLPDYGVSWIRQPPGKALEWLAVIWGSETTYYNSALKSRLTISKDNSKSQVVLTMTNMDPVDTATYYCAKHYYYGGSYAMDYWGQGTTVTVSS VL: DIQMTQSPSSLSASVGDRVTITCRASQDISKYLNWYQQKPGGAVKLLIYHTSRLHSGVPSRFSGSGSGTDYTLTISSLQPEDFATYYCQQGNTLPYTFGGGTKVEIKR | no binding (tested: 100 nM) | 0.11 OD450 | 0.16 OD450 | 0.39 OD450 | 1.52 OD450 | 2.29 OD450 | 2.32 OD450 | 2.64 OD450 | 0.06 OD450 | 0.06 OD450 | 0.06 OD450 | 0.05 OD450 | 0.06 OD450 | 0.08 OD450 | 0.11 OD450 | 1.33 nM | 29400 MFI |

Source: patent US20230406922A1 (SIMCERE ZAIMING PHARMACEUTICAL, published 2023)
